In the DeepSol protein solubility set:

Assay: soluble on expression in E. coli; label from the status in PepcDB or PDB records

Row | Sequence | soluble on expression in E. coli
1 | MGSDKIHHHHHHMVNEELLWVLWQHLLFSVESLHTTTGEPIIIKHTGTLNVHAGPDFSLAKLCIDGIEWAGDVEIHTKASDWYKHKHQHNPAYESVILHVVYEADIDITRADGSCIPVLELKDRIHTMHLETYGYLMEEKKTVPCAHAIHEIPAIVMEQMKQRVLIERLERKTDGLFQLLTDQPNWKMIAGRLIFKSFGTGLNDYLFERMAQQMDFNKLDRLSYAPKSIEALFFGCSGMLEKDWADDFPAALKKEYTYLQRTQTVTCTIDSSEWKFLRTRPVNFPTIRLAQLAALFSNTDWYASFSSITSVKYAEDFLNVSLSDYWLNHYRFDVLSKPAPKHIGKTFANTFLLNAYIPFLVLHARYYKNETTWEQVFEMLDTIQAEDNAITRVWKELGIRMDTGFDSQSGLELYKMYCTHKKCLSCSIGFSILRNASVSAVVK | not soluble
2 | MGSDKIHHHHHHLRILNTAATGVRAQQTALDVLGNNMSNVNTPGYKAQRVNFAEALAAEMRPAEREFNGQPVGERIDVGAGVIYPTIDTDYRQGIIRETENPFDLAIDGEGFFPVRTANGESRYTRVGNFELDSQGKLVNSDGYILEVKIPADAMDLYVDETGNITGFIDDEERVLGRVVVNDPEGEGYPVGPIDMDELGRPLDWNGDILPTAFAVPEGAEDVQISTEGILSATIDGSRQTLGQINIITFANPEGLVRDGDNLYFAPDAAGVTGDELVGTPGSQVEERTLGKLKTQSLEQSNVNLASAMTEMIQVQRAYQLNARMITNGDQMWSMANSLRR | not soluble
3 | SGEIKVSPDYNWFRSTVPLKKIIVDDDDSKIWSLYDAGPRSIRCPLIFLPPVSGTADVFFQQILALTGWGYRVIALQYPVYWDHLEFCDGFRKLLDHLQLDKVHLFGASLGGFLAQKFAEYTHKSPRVHSLILCNAFSDTSIFNQTWTANSFWLMPAFMLKKIVLGNFSSGPVDPMMADAIDFMVDRLESLGQSELASRLTLNCQNSYVEPHKIRDIPVTIMDIHLLQFHGTKYAAIDPSVVSAEELDVQKGQLDLSQEEP | soluble
4 | MLAVSFIAGVILIGLYGVDSSERYIAVSELLANPQDYSGQNINAMGVVEDRSLHKDPGVTSFDLKDENDENLKIHVNYVGNLPSNLAEGKQVTIRGSMISESTFEANKIVTGCPSKYTELEHHHHHH | not soluble
5 | MGSDKIHHHHHHMPFDPKIRGPLDVRPLLQLMSAGSWQVELAHERDCHLVIWITRGQGRVLLDGQCRGFGPHTALCIPARTLFSLELGRQCIGQVLRIGEDIPCGLPETPMQIRINDMQEQGRINALFDAALREQQVADDHTAKAITSYADLVGIHLQRLWVRAPENRKPTAARRLCRAYCARLAQDAEGAFNMAGHASELGVTPTHLTRVCKQETGKTAAALLTERQLHAARSLLASTRLPMRDIAQSLGFGSAAYFTRFITQHTGSTPSDLRKKAHGAQLASGRNP | not soluble
6 | AEVNDPRVGFVAVVTFPVDGPATQHKLVELATGGVQEWIREVPGFLSATYHASTDGTAVVNYAQWESEQAYRVNFGADPRSAELREALSSLPGLMGPPKAVFMTPRGAILPS | soluble
7 | MVDSRAFKLKEGREREVDMTSETEKRIIALEETIAHQAKTIEELSDQLAEQWKVVEQTRAKLDRLTERFLSLEEQSLDAPAITRPPHY | not soluble
8 | SNALNLPYDEHADAWTQVKKALAAGKRTHKPTLLVFGANWCTDCRALDKSLRNQKNTALIAKHFEVVKIDVGNFDRNLELSQAYGDPIQDGIPAVVVVNSDGKVRYTTKGGELANARKMSDQGIYDFFAKITE | soluble
9 | SNSGEPAPVLSSPTPTDLSTFLSFPSPEKLLRLGPKVSVLIVQQTDTSDPEKVVSAFLKVASVFRDDASVKTAVLDAIDALMKKAFSCSSFNSNTFLTRLLIHMGLLKSEDKIKAIPSLHGPLMVLNHVVRQDYFPKALAPLLLAFVTKPNGALETCSFARHNLLQTLYNI | soluble
10 | SLPWLHRETARSFGGAGSTAGYEQVTAYTLTGQLQSRHLNLPQLDCDYDWNDNGQLIRISGPQESREYRYSDTGRLTGVHTTAANLDIDIPYATDPAGNRLPDPELHPDSTLTAWPDNRIAEDAHYVYRYDEYGRLTEKTDRIPEGVIRMHDERTHHYHYDNQHRLVFYTRIQYGEPLVESRYLYDPLGRRTGKRVWRRERDLTGWMSLSRKPEVTWYGWDGDRLTTVQTGTTRIQTVYRPGSFTPLIRIETENGEREKAQRRSLAEKLQQEGSEDGHGVVFPAELVRMLDRLEEEIRADRVSSESRAWLAQCGLTVEQLEKQVEPEYTPARTLHLYHCDHRGLPLALISEDGNTAWSAEYDEWGNQLNEENPHHLHQPYRLPGQQHDEESGLYYNRHRYYDPLQGRYITPDPIGLRGGWNMYQYPLNPIQVIDPMGLDAIENMTSGGLIYAVSGVPGLIVANSITNSAYQFGYDMDAIVGGAHNGAADAMRYCYLMCRMTKT | not soluble
11 | ELKDSYVDYTLLYDMIANRIGIEEAVVENGALRLMKNQVWAYDFLPHMLIAGGTGGGKTYFLLTIIEALLKSDAELFILDPKNADLADLGTIMTHVYSQKEQISACVEDFYERMMVRSRLMKEMPNYKTGENYAYLGLSPNFLVFDEYVAYMEMLTTKESAVILNKLKQIVMLGRQSGFFLILACQRPDA | not soluble
12 | GAMADDAAIQQTLAKMGIKSSDIQPAPVAGMKTVLTNSGVLYITDDGKHIIQGPMYDVSGTAPVNVTNKMLLKQLNALEKEMIVYKAPQEKHVITVFTDITCGYSHKLHEQMADYNALGITVRYLAFPRQGLDSDAEKEMKAIWCAKDKNKAFDDVMAGKSVAPASCDVDIADHYALGVQLGVSGTPAVVLSNGTLVPGYQPPKEMKEFLDEHQKMTSGK | soluble
13 | MARHFGMALAPWDVMGGGRFQSKKAMEERRKNGECIRSFVGASEQTDAEIKISEALAKVAEEHGTESVTAIAIAYVRSKAKNVFPSVEGGKIEDLKENIKALSIDLTPDNIKYLENVVPFDIGFPNTFIVLNSLTQKYGTNNV | soluble
14 | MGGSHHHHHHGMASALDCCTENACSKPDDDILDIPLDDPGANAAAAKIQASFRGHMARKKIKSGERGRKGPGPGGPGGAGVARGGAGGGPSGD | not soluble
15 | MKVSDILTVAIRLEEEGERFYRELSEHFNGEIKKTFLELADQERIHAEIFRKMSDQENWDEVDSYLAGYAFYEVFPDTSEILRRKDLTLKEVLDIAISVEKDSIILYYELKDGLVNSDAQKTVKKIIDQEKEHLRKLLEMKREST | not soluble
16 | MAHHHHHHMPLRIGGFNVCCYHDCTNAAAIHAELKRRHIDAAVVDHAFLISPLQLAVALFRVEGSADMLTTRSPFTISPPLAEASSPSPTSTSASPSLPPLLQQQPTRRVSNSRQIFAALSLSHNLDRILQVLPPGPQTTSVVIIYKRSGSARAAAVSFADDVGADSAVASTVPDGDGLDATINACVQLTNSAAQAHTFALITEPFWTGAAFAFADVSKVALFYGISESMLLAAQRSMTRADVRRVCVGAESQEAPAQVLRWHALEVCVTTLLSACTA | soluble
17 | MSATEKDKTPLLGVSQPISLAHPDSKDIAQTTLLIETLKKFGSYEPKEETEQRMEVLRNLNRLVKEWVKNVTAMKIPNGEGVNAGGKLFTFGSYRLGVHSSGADIDTLAVVPRHIDRSDFFTSFKEMLNNDPNVTELHGVEEAFVPVMKLKYSGVELDILFARLALKEVPDTQELSDDNLLRNLDQESVRSLNGCRVAEQLLKLVPRQKEFCVTLRAIKLWAKNHGIYSNSMGFFGGITWAILVARACQLYPNASPSRLVHRMFFIFSTWTWPHPVVLNEMNNDRNDIPTLCELVWDPRRKNTDRFHVMPIITPAFPEQNSTHNVTRSTATVIKNEICEALEICRDISEGKSKWTALFEEVNFFSRYKHFIALIMAAPNEEEELNYGGFLESRIRLLVQSLERNQDIIIAHNDPNKHKPSPNAKFDVNPENKRVTVWFIGLEFAEHAKTLDLTNEIQRFKTNVELQASNVKGIGPNCQVQIDMFYVKRNSLIQVISAADLRRGRRWKKVVPIATNTSVSSSTPRSVVRTTSTSSVPTTPTGLAAPKTPLSASVSATNEPDSTTNGTPLSRKRSMDEESSTTVTSQISDESVPKKKTRDDTLEENRVSMVVEVSNVVVEQRTKVVQEIVDLQADNGLNTSNGLEASEQKMEVPQSV | not soluble
